Molecular target: T1, full-length human tau (hTau40) (human, UniProt P10636-8 1-441)
T1 construct: plasmid PT7CHT40; The same construct was used as monomer (no inducer) and as filaments or oligomers induced with 75 uM arachidonic acid; No tag removal is described; also called hTau40^m (incubated without inducer, monomeric); hTau40^ARA (incubated with arachidonic acid, filaments and oligomers); source: E. coli BL21, purified (boiled lysate, HIS-select Nickel resin)
Experiment: ELISA; nondenaturing sandwich ELISA; Tau13 capture antibody, anti-EFhd2 detection antibody; 2 uM hEFhd2 and 2 uM hTau40 co-incubated overnight at room temperature without arachidonic acid (hTau40^m/hEFhd2), then diluted in 1X PBS
Conditions: both partners purified

T1 sequence (P10636 other isoform, or with tags, fused parts or gaps): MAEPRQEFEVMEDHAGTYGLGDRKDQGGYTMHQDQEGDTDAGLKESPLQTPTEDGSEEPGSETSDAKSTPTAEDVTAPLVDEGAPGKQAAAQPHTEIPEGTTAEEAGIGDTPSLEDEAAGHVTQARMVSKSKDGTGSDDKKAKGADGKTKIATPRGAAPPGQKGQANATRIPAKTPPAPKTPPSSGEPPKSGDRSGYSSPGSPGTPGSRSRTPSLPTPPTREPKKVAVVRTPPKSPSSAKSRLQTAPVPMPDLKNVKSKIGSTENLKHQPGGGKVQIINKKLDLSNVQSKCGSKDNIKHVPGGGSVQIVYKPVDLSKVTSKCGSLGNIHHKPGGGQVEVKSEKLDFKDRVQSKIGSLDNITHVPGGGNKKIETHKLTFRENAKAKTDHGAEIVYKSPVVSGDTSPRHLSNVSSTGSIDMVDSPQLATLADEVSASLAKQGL

binding result: binds
B1: recombinant human EFhd2 (natural protein, UniProt Q96C19 1-240, looked up)
chain: MATDELATKLSRRLQMEGEGGGETPEQPGLNGAAAAAAGAPDEAAEALGSADCELSAKLLRRADLNQGIGEPQSPSRRVFNPYTEFKEFSRKQIKDMEKMFKQYDAGRDGFIDLMELKLMMEKLGAPQTHLGLKNMIKEVDEDFDSKLSFREFLLIFRKAAAGELQEDSGLCVLARLSEIDVSSEGVKGAKSFFEAKVQAINVSSRFEEEIKAEQEERKKQAEEMKQRKAAFKELQSTFK
notes: wild type human EFhd2; No tag removal is described; also called hEFhd2; EF-hand domain 2 protein; source: E. coli BL21 (DE3), purified (HIS-select Nickel resin)

— PMC11100465, “EFhd2 co-aggregates with monomeric and filamentous tau in vitro” (Frontiers in Neuroscience, 2024)
